Target: IL-4R (UniProt P24394)
Test: cell-based or functional assay

attenuation of IL-4R activity beyond the control constructs: > 10%
B1: anti-IL-4R:anti-CD63 conjugate (streptavidin-conjugated anti-IL-4R antibody combined 1:1 with biotinylated anti-CD63 antibody MEM-259) (protein, part only; not given: anti-CD63 antibody MEM-259, part only)
VH: EVQLVESGGGVVQPGRSLRLSCVASGFTFSDYGMHWVRQAPGKGLEWVAVIWYDGSIKYFRDSVKGRFTISRDNSKNTLYLQMNSLRVEDTAHYYCAKESSSWYFYHGLDVWGQGTMVTVSS
VL: EIVMTQSPLSLPVSPGEPASISCRSNQSLLHSNGNNYLAWYLQKPGQSPHLLIYLGSNRASGVPDRFSGSGSGTDFTLKISRVEAGDVGTYFCMQSLQAPPFTFGPGTKVEIKR
modifications: antibody conjugated to streptavidin

— patent US20220008548A1
